Laboratory results taken from patent publication US20230322953A1 (HARBOUR BIOMED SHANGHAI, published 2023).
Where “and” joins values, the source holds several entries; their conditions need not be identical. Equal values may be shown once.

Assays:
[1] = target: T1, human PD-L1-His protein (ACRO Biosystems, #PD1-H5229) (human, UniProt Q9NZQ7 19-238); experiment: ELISA, coated hPD-L1-His
T1 construct: extracellular domain; bought; also called hPDL1-His; human PD-L1 extracellular domain recombinant protein
T1 sequence (Q9NZQ7 19-238): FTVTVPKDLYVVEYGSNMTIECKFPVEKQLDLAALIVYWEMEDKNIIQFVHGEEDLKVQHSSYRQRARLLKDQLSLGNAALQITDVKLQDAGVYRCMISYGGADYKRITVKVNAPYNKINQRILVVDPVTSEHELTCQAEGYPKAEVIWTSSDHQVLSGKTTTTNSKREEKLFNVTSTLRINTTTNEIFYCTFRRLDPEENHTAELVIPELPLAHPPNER

[2] = target: T2, human PD-L1 on cells (CHO-K1/hPDL1; MDA-MB-231) (human, UniProt Q9NZQ7 19-290); experiment: competition FACS: biotinylated PD-1 to CHO-K1/hPDL1 cells (Experiment 1)
T2 construct: whole, on cells
T2 sequence (Q9NZQ7 19-290): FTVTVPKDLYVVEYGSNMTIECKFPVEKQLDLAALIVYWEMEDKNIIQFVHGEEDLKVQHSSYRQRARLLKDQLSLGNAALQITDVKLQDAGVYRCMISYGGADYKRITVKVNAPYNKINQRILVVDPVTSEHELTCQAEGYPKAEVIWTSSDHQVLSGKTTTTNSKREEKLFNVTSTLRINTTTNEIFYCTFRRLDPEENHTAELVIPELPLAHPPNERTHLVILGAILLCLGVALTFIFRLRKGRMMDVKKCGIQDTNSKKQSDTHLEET

[3] = target: T2, human PD-L1 on cells (CHO-K1/hPDL1; …); experiment: FACS, CHO-K1/hPDL1 cells (Experiment 1)
human BCMA [4] = target: T3, human BCMA (human, UniProt Q02223 1-184); experiment: FACS on NCI-H929 cells
T3 construct: whole, on cells; also called hBCMA; TNFRSF17
T3 sequence (looked up): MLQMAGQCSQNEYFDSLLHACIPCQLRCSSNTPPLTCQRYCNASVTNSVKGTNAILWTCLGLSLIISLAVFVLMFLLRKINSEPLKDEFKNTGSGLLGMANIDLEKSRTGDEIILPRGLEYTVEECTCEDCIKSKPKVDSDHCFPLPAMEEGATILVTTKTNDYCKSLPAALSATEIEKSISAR

human BCMA [5] = target: T3, human BCMA; experiment: FACS on HEK293T/hBCMA cells, Experiment 2
human BCMA [6] = target: T3, human BCMA; experiment: FACS on HEK293T/hBCMA cells, Experiment 3
cynomolgus monkey BCMA = target: T4, cynomolgus monkey BCMA (cynomolgus monkey, UniProt A0A2K5UD97 1-183); experiment: FACS on HEK293T/cyno BCMA cells
T4 construct: whole, on cells; also called cyno BCMA
T4 sequence (A0A2K5UD97 entry or part of it): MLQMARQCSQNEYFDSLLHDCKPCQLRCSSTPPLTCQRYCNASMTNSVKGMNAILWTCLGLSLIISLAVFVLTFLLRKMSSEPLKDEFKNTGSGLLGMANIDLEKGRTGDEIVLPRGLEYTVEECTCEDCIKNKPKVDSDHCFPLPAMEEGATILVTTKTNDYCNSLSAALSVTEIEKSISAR

[7] = target: T2, human PD-L1 on cells (CHO-K1/hPDL1; …); experiment: FACS, CHO-K1/hPDL1 cells (Experiment 2)
[8] = target: T5, human CTLA4 on cells (CHO-K1/hCTLA4; HEK293/hCTLA4; 293F-hCTLA4) (human, UniProt P16410 36-223); experiment: FACS, HEK293/hCTLA4 cells
T5 construct: whole, on cells
T5 sequence (P16410 36-223): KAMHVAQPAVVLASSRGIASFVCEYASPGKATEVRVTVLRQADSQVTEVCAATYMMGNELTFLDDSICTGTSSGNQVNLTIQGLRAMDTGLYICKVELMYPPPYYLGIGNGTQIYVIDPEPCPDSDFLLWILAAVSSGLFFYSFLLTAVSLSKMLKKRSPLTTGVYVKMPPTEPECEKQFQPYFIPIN

[9] = target: T5, human CTLA4 on cells (CHO-K1/hCTLA4; …); experiment: FACS, CHO-K1/hCTLA4 cells (Test 2)
[10] = target: T2, human PD-L1 on cells (CHO-K1/hPDL1; …); experiment: competition FACS: biotinylated PD-1 to CHO-K1/hPDL1 cells (Experiment 2)

Binder	EC50 (human BCMA [4])	Maximum MFI (human BCMA [5])	EC50 (human BCMA [6]) [nM]	Maximum MFI (human BCMA [6])	Maximum MFI (human BCMA [4])	EC50 [7] [nM]	Maximum MFI [7] [MFI]	EC50 [8] [nM]	Maximum MFI [8] [MFI]	EC50 [9] [nM]	Maximum MFI [9] [MFI]	IC50 [10] [nM]	Maximum inhibition rate (%) [10] [%]	further results
PR000070, anti-PD-L1 91G3H5H3, hIgG1(N297A) (antibody, V domains shown) VH: EVQLVESGGGLVQPGGSLRLSCAASGFTFSSYWMSWVRQAPGKGLEWVANIKQDGSEKYYVDSVKGRFTISRDNAKNSLYLQMNSLRAEDTAVYYCARDRAVAGAFDIWGQGTMVTVSS VL: DIQMTQSPSTLSASVGDRVTVTCRASQSIYIWLAWYQQKPGKAPNLLIYKASSLETGVPSRFSGSGSGTEFTLTISSLQPDDFATYYCQQYYGSSRTFGQGTKVEIKR	–	–	–	–	–	–	–	–	–	–	–	–	–	EC50 [1]: 0.146 nM; Maximum OD450 [1]: 3.45 OD450; IC50 [2]: 0.725 nM; Maximum inhibition rate (%) [2]: 96.8%; EC50 [3]: 0.747 nM; Maximum MFI [3]: 22700 MFI
PR002199 (bispecific antibody, human IgG1, kappa, L234A L235A, also called Positive control 2) chain 1: not shown chain 2: EVQLVESGGGLVQPGRSLRLSCAASGFTFDDYAMHWVRQAPGKGLEWVSGISWNSGSIGYADSVKGRFTISRDNAKNSLYLQMNSLRAEDTALYYCAKDSRGYGDYRLGGAYWGQGTLVTVSSASTKGPSVFPLAPSSKSTSGGTAALGCLVKDYFPEPVTVSWNSGALTSGVHTFPAVLQSSGLYSLSSVVTVPSSSLGTQTYICNVNHKPSNTKVDKKVEPKSCDKTHTCPPCPAPEAAGGPSVFLFPPKPKDTLMISRTPEVTCVVVDVSHEDPEVKFNWYVDGVEVHNAKTKPREEQYNSTYRVVSVLTVLHQDWLNGKEYKCKVSNKALGAPIEKTISKAKGQPREPQVYTLPPCREEMTKNQVSLWCLVKGFYPSDIAVEWESNGQPENNYKTTPPVLDSDGSFFLYSKLTVDKSRWQQGNVFSCSVMHEALHNHYTQKSLSLSPGK chain 3: EVQLLESGGGLVQPGGSLRLSCAASGFTVSSYGMSWVRQAPGKGPEWVSGIRGSDGSTYYADSVKGRFTISRDNSKNTLYLQMNSLRAEDTAVYYCAKQGENDGPFDHRGQGTLVTVSSGGGGSEVQLLESGGGLVQPGGSLRLSCAASGFTVSSYGMSWVRQAPGKGPEWVSGIRGSDGSTYYADSVKGRFTISRDNSKNTLYLQMNSLRAEDTAVYYCAKQGENDGPFDHRGQGTLVTVSSASEPKSSDKTHTCPPCPAPEAAGGPSVFLFPPKPKDTLMISRTPEVTCVVVDVSHEDPEVKFNWYVDGVEVHNAKTKPREEQYNSTYRVVSVLTVLHQDWLNGKEYKCKVSNKALGAPIEKTISKAKGQPREPQVCTLPPSREEMTKNQVSLSCAVKGFYPSDIAVEWESNGQPENNYKTTPPVLDSDGSFFLVSKLTVDKSRWQQGNVFSCSVMHEALHNHYTQKSLSLSPGK	4.29 nM	17000	0.602	117000	88200	–	–	–	–	–	–	–	–	EC50 (human BCMA [5]): 1.13 nM
PR000403 (bispecific antibody, human IgG1, kappa, L234A L235A, PD-L1×CTLA4, structure 1 Fab(CL)-VH-Fc) chain 1: EVQLVESGGGLVQPGGSLRLSCAASGFTFSSYWMSWVRQAPGKGLEWVANIKQEGSEKYYVDSVKGRFTISRDNAKNSLYLQMNSLRAEDTAVYYCARDRAVAGAFDIWGQGTMVTVSSASTKGPSVFPLAPSSKSTSGGTAALGCLVKDYFPEPVTVSWNSGALTSGVHTFPAVLQSSGLYSLSSVVTVPSSSLGTQTYICNVNHKPSNTKVDKKVEPKSC chain 2: DIQMTQSPSTLSASVGDRVTVTCRASQSIYIWLAWYQQKPGKAPNLLIYKASSLETGVPSRFSGSGSGTEFTLTISSLQPDDFATYYCQQYYGSSRTFGQGTKVEIKRTVAAPSVFIFPPSDEQLKSGTASVVCLLNNFYPREAKVQWKVDNALQSGNSQESVTEQDSKDSTYSLSSTLTLSKADYEKHKVYACEVTHQGLSSPVTKSFNRGECEVQLVESGGGLIQPGGSLRLSCAVSGFTVSKNYMSWVRQAPGKGLEWVSVVYSGGSKTYADSVKGRFTISRDNSKNTLYLQMNSLRAEDTAVYYCARAVPHSPSSFDIWGQGTMVTVSSEPKSCDKTHTCPPCPAPEAAGGPSVFLFPPKPKDTLMISRTPEVTCVVVDVSHEDPEVKFNWYVDGVEVHNAKTKPREEQYNSTYRVVSVLTVLHQDWLNGKEYKCKVSNKALGAPIEKTISKAKGQPREPQVYTLPPSREEMTKNQVSLTCLVKGFYPSDIAVEWESNGQPENNYKTTPPVLDSDGSFFLYSKLTVDKSRWQQGNVFSCSVMHEALHNHYTQKSLSLSPGK	–	–	–	–	–	0.73	8090	16.3	1410	20.5	343	0.42	81.4	–
PR000404 (bispecific antibody, human IgG1, kappa, PD-L1×CTLA4, structure 1) chain 1: EVQLVESGGGLVQPGGSLRLSCAASGFTFSSYWMSWVRQAPGKGLEWVANIKQEGSEKYYVDSVKGRFTISRDNAKNSLYLQMNSLRAEDTAVYYCARDRAVAGAFDIWGQGTMVTVSSASTKGPSVFPLAPSSKSTSGGTAALGCLVKDYFPEPVTVSWNSGALTSGVHTFPAVLQSSGLYSLSSVVTVPSSSLGTQTYICNVNHKPSNTKVDKKVEPKSC chain 2: not shown	–	–	–	–	–	0.78	8100	37.2	1620	26.9	339	0.6	81.1	–

More lines, main results first:

EC50 (human BCMA [4])	Maximum MFI (human BCMA [5])	EC50 (human BCMA [6]) [nM]	Maximum MFI (human BCMA [6])	Maximum MFI (human BCMA [4])	EC50 [7] [nM]	Maximum MFI [7] [MFI]	EC50 [8] [nM]	Maximum MFI [8] [MFI]	EC50 [9] [nM]	Maximum MFI [9] [MFI]	IC50 [10] [nM]	Maximum inhibition rate (%) [10] [%]	Binder	further results
1.34 nM and 2.91 nM	25200	0.226	91600	–	–	–	–	–	–	–	–	–	PR002953 (bispecific antibody, human IgG1, lambda, L234A L235A) light: QAVVTQEPSLTVSPGGTVTLTCRSSTGAVTTSNYANWVQQKPGQAPRGLIGGTNKRAPWTPARFSGSLLGDKAALTLLGAQPEDEAEYFCALWYSNLWVFGGGTKLTVLGQPKAAPSVTLFPPSSEELQANKATLVCLISDFYPGAVTVAWKADSSPVKAGVETTTPSKQSNNKYAASSYLSLTPEQWKSHRSYSCQVTHEGSTVEKTVAPTECS heavy: not shown EVQLVETGGGLIQPGGSLRLSCAASGFTVSDNYMTWVRQAPGKGLEWVSVIFSGGNTYYADSVKGRFTISRDNAKNTLYLQMNSLRAEDTALYYCARRNYDDTRGTDVFDIWGQGTMVTVSSGGGGSGGGGSGGGGSEVQLVETGGGLIQPGGSLRLSCAASGFTVSDNYMTWVRQAPGKGLEWVSVIFSGGNTYYADSVKGRFTISRDNAKNTLYLQMNSLRAEDTALYYCARRNYDDTRGTDVFDIWGQGTMVTVSSASEPKSSDKTHTCPPCPAPEAAGGPSVFLFPPKPKDTLMISRTPEVTCVVVDVSHEDPEVKFNWYVDGVEVHNAKTKPREEQYNSTYRVVSVLTVLHQDWLNGKEYKCKVSNKALPAPIEKTISKAKGQPREPQVCTLPPSREEMTKNQVSLSCAVKGFYPSDIAVEWESNGQPENNYKTTPPVLDSDGSFFLVSKLTVDKSRWQQGNVFSCSVMHEALHNHYTQKSLSLSPGK	–
1.23 nM	–	0.188	99300	15600	–	–	–	–	–	–	–	–	PR003178 (bispecific antibody, human IgG1, lambda, L234A L235A) light: QAVVTQEPSLTVSPGGTVTLTCRSSTGAVTTSNYANWVQQKPGQAPRGLIGGTNKRAPWTPARFSGSLLGDKAALTLLGAQPEDEAEYFCALWYSNLWVFGGGTKLTVLGQPKAAPSVTLFPPSSEELQANKATLVCLISDFYPGAVTVAWKADSSPVKAGVETTTPSKQSNNKYAASSYLSLTPEQWKSHRSYSCQVTHEGSTVEKTVAPTECS heavy: not shown EVQLVETGGGLIQPGGSLRLSCAASGFTVSDNYMTWVRQAPGKGLEWVSVIFSGGNTYYADSVKGRFTISRDNAKNTLYLQMNSLRAEDTALYYCARRNYDDTRGTDVFDIWGQGTMVTVSSGGGGSGGGGSGGGGSEVQLVETGGGLIQPGGSLRLSCAASGFTVSDNYMTWVRQAPGKGLEWVSVIFSGGNTYYADSVKGRFTISRDNAKNTLYLQMNSLRAEDTALYYCARRNYDDTRGTDVFDIWGQGTMVTVSSASEPKSSDKTHTCPPCPAPEAAGGPSVFLFPPKPKDTLMISRTPEVTCVVVDVSHEDPEVKFNWYVDGVEVHNAKTKPREEQYNSTYRVVSVLTVLHQDWLNGKEYKCKVSNKALPAPIEKTISKAKGQPREPQVCTLPPSREEMTKNQVSLSCAVKGFYPSDIAVEWESNGQPENNYKTTPPVLDSDGSFFLVSKLTVDKSRWQQGNVFSCSVMHEALHNHYTQKSLSLSPGK	Maximum MFI (cynomolgus monkey BCMA): 115000
